Measured values reported in IntAct's records for PubMed 29769718.

B1: Alanine--tRNA ligase, cytoplasmic (Mus musculus), Q8BGQ7 (parent)
chain: MDATLTAREIRERFINFFRRNEHTYVHSSATIPLDDPTLLFANAGMNQFKPIFLNTIDPSHPMAKLSRAANTQKCIRAGGKHNDLDDVGKDVYHHTFFEMLGSWSFGDYFKELACKMALELLTQEFGIPVERLYVTYFGGDEAAGLEPDLECRQIWQNLGLDEARILPGNMKDNFWEMGDTGPCGPCSEIHYDRIGGRDAAHLVNQDDPNVLEIWNLVFIQYNRESDGVLKPLPKKSIDTGMGLERLVSVLQNKMSNYDTDLFMPYFEAIQKGTGARPYTGKVGAEDADGIDMAYRVLADHARTITVALADGGRPDNTGRGYVLRRILRRAVRYSHEKLNASRGFFATLVDVVVQSLGDAFPELKKDPEMVKDIINEEEVQFLKTLSRGRRILDRKIQSLGDCKTIPGDTAWLLYDTYGFPVDLTGLIAEEKGLVVDMNGFEEERRLAQLKSQGKGAGDEDLIMLDIYAIEELRAKGLEATDDSPKYNYQSDSSGSYVFECTVATVLALRREKMFVDEVVTGQECGVVLDKTCFYAEQGGQIYDEGYLVKVDDSSEDKTEFTVKNAQVRGGYVLHIGTIYGNLKVGDQVRLFIDEPRRRPVMSNHTATHILNFALRSVLGEADQKGSLVAPDRLRFDFTAKGAMSTQQIKKAEEIVNGMIEAAKPVYTQDCPLAAAKAIQGLRAVFDETYPDPVRVVSIGVPVSELLDDPCGPAGSLTSVEFCGGTHLRNSSHAGAFVIVTEEAIAKGIRRIVAVTGAEAQKALRKSETLKKSLSAMEAKVKAQTAPNKDVQREIADLGEALATAVIPQWQKDEQRETLKSLKKVMDDLDRASKADVQKRVLEKTKQLIDSNPNQPLVILEMESGASAKALNEALKLFKTHSPQTSAMLFTVDNEAGKITCLCQVPQNAANRGLKASEWVQQVSGLMDGKGGGKDMSAQATGKNVGCLQEALQLATSFAQLRLGDVKN
B2: Ankyrin repeat domain-containing protein 16 (Mus musculus), A2AS55-1 (parent)
chain: MALPGDPRRLCRLVQEGRLRDLQEELAVARGCRGPAGDTLLHCAARHGRQDILAYLVEAWSMDIEATNRDYKRPLHEAASMGHRDCVRYLLGRGAVVDSLKKADWTPLMMACTRKNLDVIQDLVEHGANPLLKNKDGWNSFHIASREGHPVILRYLLTVCPDAWKTESNIRRTPLHTAAMHGCLEAVQVLLERCHYEPDCRDNCGVTPFMDAIQCGHVSIAKLLLEQHKACSSAADSMGAQALHRAAVTGQDEAIRFLVCGLGIDVDVRAKSSQLTALHYAAKEGQTNTVQTLLSLGADINSTDERNRSVLHLACAGQHVACTRLLLQSGLKDSEDLTGTLAQQLTRSVDILQDFDHDVKS

Variants of: B1
Conditions: with Ankrd16, A2AS55-1

Q: With A734E as the variant, how does the “effect of a mutation on the interaction” value read?
A: with no effect

Variants of: B2
Conditions: with syac_mouse Aars1, Q8BGQ7

Q: For K102R;K135R;K165R, which “effect of a mutation on the interaction” value is on record?
A: disrupting interaction strength
